According to article PMC8469222, “First Dye-Decolorizing Peroxidase from an Ascomycetous Fungus Secreted by Xylaria grammica” (Biomolecules, 2021):

Assays:
XgrDyP = molecular target: T1, XgrDyP (Xylaria grammica, UniProt A0A439DJS1); experiment: spectrophotometric decolorization at […] nm, Lineweaver-Burk; format: biochemical; details: apparent; 50 mM sodium citrate pH 4.5, H2O2 co-substrate held constant, room temperature
T1 construct: gene EKO27_g488; wild-type, natively secreted, purified from Xylaria grammica culture liquid (AEX, SEC, MonoQ); 49 kDa on SDS-PAGE; heme protein
T1 sequence (A0A439DJS1 1-493): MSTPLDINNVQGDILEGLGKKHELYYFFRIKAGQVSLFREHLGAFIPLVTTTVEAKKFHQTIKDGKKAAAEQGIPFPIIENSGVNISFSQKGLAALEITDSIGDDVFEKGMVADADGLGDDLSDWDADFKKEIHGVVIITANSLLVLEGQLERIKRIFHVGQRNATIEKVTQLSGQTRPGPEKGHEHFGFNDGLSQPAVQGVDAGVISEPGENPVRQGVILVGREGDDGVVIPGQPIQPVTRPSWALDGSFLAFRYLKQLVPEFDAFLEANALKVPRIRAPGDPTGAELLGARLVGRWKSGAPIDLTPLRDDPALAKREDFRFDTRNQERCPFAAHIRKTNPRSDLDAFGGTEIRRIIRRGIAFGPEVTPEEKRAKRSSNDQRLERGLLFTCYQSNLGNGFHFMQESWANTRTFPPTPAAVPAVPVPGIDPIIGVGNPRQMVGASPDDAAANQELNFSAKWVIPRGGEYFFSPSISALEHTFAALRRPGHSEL

purified protein [1] = substrate: CCn1c(=NN=c2sc3cc(S(=O)(=O)O)ccc3n2CC)sc2cc(S(=O)(=O)O)ccc21; experiment: purified protein; format: biochemical, Xylaria grammica; details: apparent, 50 mM sodium citrate pH 4.5, H2O2 co-substrate held constant, room temperature
purified protein [2] = substrate: COc1cccc(OC)c1O; experiment: purified protein; format: biochemical, Xylaria grammica; details: apparent, 50 mM sodium citrate pH 4.5, H2O2 co-substrate held constant, room temperature

Work on `Nc1c(S(=O)(=O)O)cc(Nc2ccc(S(=O)(=O)O)c(Nc3nc(Cl)nc(Nc4cccc(S(=O)(=O)O)c4)n3)c2)c2c1C(=O)c1ccccc1C2=O` [RBlue5] yielded a Km (XgrDyP) of 41 µM.

B1: XgrDyP (Xylaria grammica) (protein)
chain: T1 sequence (A0A439DJS1 1-493)
notes: wild-type, natively secreted, purified from Xylaria grammica culture liquid (AEX, SEC, MonoQ); 49 kDa on SDS-PAGE; heme protein
For B1, the Km (purified protein [1]) was 41 µM, the kcat (purified protein [1]) was 12 s⁻¹ and the kcat/Km (purified protein [1]) was 287000 M⁻¹ s⁻¹. The Km (purified protein [2]) was 12 µM, the kcat (purified protein [2]) was 29 s⁻¹ and the kcat/Km (purified protein [2]) was 2.5e+06 M⁻¹ s⁻¹.
